Data: US10766960 (dated 2020)
Like-named read-outs stand apart in the source and are kept apart here.

Experiments:
FcgRIIIa F [1] = biological target: T1, FcgRIIIa F (human, UniProt P08637); assay: SPR
FcgRIIIa F [2] = biological target: T1, FcgRIIIa F; assay: SPR; remark: listed apart in the source

T1 sequence (P08637 17-208): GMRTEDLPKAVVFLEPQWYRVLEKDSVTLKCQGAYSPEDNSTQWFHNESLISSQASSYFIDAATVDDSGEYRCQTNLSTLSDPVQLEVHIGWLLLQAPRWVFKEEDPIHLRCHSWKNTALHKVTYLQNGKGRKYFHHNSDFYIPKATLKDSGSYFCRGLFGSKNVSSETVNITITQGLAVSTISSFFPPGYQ

Row | Binder | Kd (FcgRIIIa F [1]) | Kd (FcgRIIIa F [2])
1 | GpH7-TA7/GpH7-TA58/GpL16-k0 (antibody) chain 1: QVQLVQSGAEVKKPGASVTVSCKASGYTFTDYEMHWIRQPPGEGLEWIGAIDPKTGDTAYSESFQDRVTLTADKSTSTAYMELSSLTSEDTAVYYCTRFYSYTYWGQGTLVTVSSASTKGPSVFPLAPSSKSTSGGTAALGCLVKDYFPEPVTVSWNSGALTSGVHTFPAVLQSSGLYSLSSVVTVPSSSLGTQTYICNVNHKPSNTKVDKKVEPKSCDKTHTCPPCPAPEYLWGPSVFLFPPKPKDTLMISRTPEVTCVVVDVSHEDPEVKFNWYVDGVEVHNAKTKPREEQYNATYRVVSVLTVLHQDWLNGKEYKCKVSNKALPAPIEKTISKAKGQPREPQVYTLPPSRKELTKNQVSLTCLVKGFYPSDIAVEWESNGQPENNYKTTPPVLDSDGSFFLYSKLTVDKSRWQQGNVFSCSVMHEALHNRYTQKSLSLSP chain 2: QVQLVQSGAEVKKPGASVTVSCKASGYTFTDYEMHWIRQPPGEGLEWIGAIDPKTGDTAYSESFQDRVTLTADKSTSTAYMELSSLTSEDTAVYYCTRFYSYTYWGQGTLVTVSSASTKGPSVFPLAPSSKSTSGGTAALGCLVKDYFPEPVTVSWNSGALTSGVHTFPAVLQSSGLYSLSSVVTVPSSSLGTQTYICNVNHKPSNTKVDKKVEPKSCDKTHTCPPCPAPELLGGPDVFLFPPKPKDTLMISRTPEVTCVVVDVSHEDPEVKFNWYVDGVEVHNAKTKPREEQWNSTYRVVSVLTVLHQDWLNGKEYKCKVSNKALPLPEEKTISKAKGQPREPQVYTLPPSRDELTKNQVSLTCLVKGFYPSDIAVEWESNGQPENNYKTTPPVLDSDGSFFLYSKLTVDKSRWQQGNVFSCSVMHEALHNHYTQESLSLSP chain 3: DIVMTQSPLSLPVTPGEPASISCQASESLVHSNRNTYLHWYLQKPGQSPQLLIYKVSNRFSGVPDRFSGSGSGTDFTLKISRVEAEDVGVYYCSQNTHVPPTFGQGTKVEIERTVAAPSVFIFPPSDEQLKSGTASVVCLLNNFYPREAKVQWKVDNALQSGNSQESVTEQDSKDSTYSLSSTLTLSKADYEKHKVYACEVTHQGLSSPVTKSFNRGEC | 3.3 nM | –
2 | GpH7-TA7/GpH7-TA50/GpL16-k0 (antibody) chain 1: QVQLVQSGAEVKKPGASVTVSCKASGYTFTDYEMHWIRQPPGEGLEWIGAIDPKTGDTAYSESFQDRVTLTADKSTSTAYMELSSLTSEDTAVYYCTRFYSYTYWGQGTLVTVSSASTKGPSVFPLAPSSKSTSGGTAALGCLVKDYFPEPVTVSWNSGALTSGVHTFPAVLQSSGLYSLSSVVTVPSSSLGTQTYICNVNHKPSNTKVDKKVEPKSCDKTHTCPPCPAPEYLWGPSVFLFPPKPKDTLMISRTPEVTCVVVDVSHEDPEVKFNWYVDGVEVHNAKTKPREEQYNATYRVVSVLTVLHQDWLNGKEYKCKVSNKALPAPIEKTISKAKGQPREPQVYTLPPSRKELTKNQVSLTCLVKGFYPSDIAVEWESNGQPENNYKTTPPVLDSDGSFFLYSKLTVDKSRWQQGNVFSCSVMHEALHNRYTQKSLSLSP chain 2: QVQLVQSGAEVKKPGASVTVSCKASGYTFTDYEMHWIRQPPGEGLEWIGAIDPKTGDTAYSESFQDRVTLTADKSTSTAYMELSSLTSEDTAVYYCTRFYSYTYWGQGTLVTVSSASTKGPSVFPLAPSSKSTSGGTAALGCLVKDYFPEPVTVSWNSGALTSGVHTFPAVLQSSGLYSLSSVVTVPSSSLGTQTYICNVNHKPSNTKVDKKVEPKSCDKTHTCPPCPAPELLGGPDVFLFPPKPKDTLMISRTPEVTCVVVDVSHEDPEVKFNWYVDGVEVHNAKTKPREEQYNSTYRVVSVLTVLHQDWLNGKEYKCKVSNKALPLPEEGTISKAKGQPREPQVYTLPPSRDELTKNQVSLTCLVKGFYPSDIAVEWESNGQPENNYKTTPPVLDSDGSFFLYSKLTVDKSRWQQGNVFSCSVMHEALHNHYTQESLSLSP chain 3: DIVMTQSPLSLPVTPGEPASISCQASESLVHSNRNTYLHWYLQKPGQSPQLLIYKVSNRFSGVPDRFSGSGSGTDFTLKISRVEAEDVGVYYCSQNTHVPPTFGQGTKVEIERTVAAPSVFIFPPSDEQLKSGTASVVCLLNNFYPREAKVQWKVDNALQSGNSQESVTEQDSKDSTYSLSSTLTLSKADYEKHKVYACEVTHQGLSSPVTKSFNRGEC | – | 3.4 nM

Next, values leading:

Row | Kd (FcgRIIIa F [1]) | Kd (FcgRIIIa F [2]) | Binder
3 | – | 7.5 nM | GpH7-TA40/GpH7-B78/GpL16-k0 (antibody) chain 1: QVQLVQSGAEVKKPGASVTVSCKASGYTFTDYEMHWIRQPPGEGLEWIGAIDPKTGDTAYSESFQDRVTLTADKSTSTAYMELSSLTSEDTAVYYCTRFYSYTYWGQGTLVTVSSASTKGPSVFPLAPSSKSTSGGTAALGCLVKDYFPEPVTVSWNSGALTSGVHTFPAVLQSSGLYSLSSVVTVPSSSLGTQTYICNVNHKPSNTKVDKKVEPKSCDKTHTCPPCPAPEYLWGPSVFLFPPKPKDTLMISRTPEVTCVVVDVSHEDPEVKFNWYVDGVEVHNAKTKPREEQYNATYRVVSVLTVLHQDWLNGKEYKCKVSNKALPAPIEGTISKAKGQPREPQVYTLPPSRKELTKNQVSLTCLVKGFYPSDIAVEWESNGQPENNYKTTPPVLDSDGSFFLYSKLTVDKSRWQQGNVFSCSVMHEALHNRYTQKSLSLSP chain 2: QVQLVQSGAEVKKPGASVTVSCKASGYTFTDYEMHWIRQPPGEGLEWIGAIDPKTGDTAYSESFQDRVTLTADKSTSTAYMELSSLTSEDTAVYYCTRFYSYTYWGQGTLVTVSSASTKGPSVFPLAPSSKSTSGGTAALGCLVKDYFPEPVTVSWNSGALTSGVHTFPAVLQSSGLYSLSSVVTVPSSSLGTQTYICNVNHKPSNTKVDKKVEPKSCDKTHTCPPCPAPELLGGPDVFLFPPKPKDTLMISRTPEVTCVVVDVSHEDPEVKFNWYVDGVEVHNAKTKPREEQYNSTYRVVSVLTVLHQDWLNGKEYKCKVSNKALPLPEEKTISKAKGQPREPQVYTLPPSRDELTKNQVSLTCLVKGFYPSDIAVEWESNGQPENNYKTTPPVLDSDGSFFLYSKLTVDKSRWQQGNVFSCSVMHEALHNHYTQESLSLSP chain 3: DIVMTQSPLSLPVTPGEPASISCQASESLVHSNRNTYLHWYLQKPGQSPQLLIYKVSNRFSGVPDRFSGSGSGTDFTLKISRVEAEDVGVYYCSQNTHVPPTFGQGTKVEIERTVAAPSVFIFPPSDEQLKSGTASVVCLLNNFYPREAKVQWKVDNALQSGNSQESVTEQDSKDSTYSLSSTLTLSKADYEKHKVYACEVTHQGLSSPVTKSFNRGEC
4 | 2.3 nM | – | GpH7-TA52/GpH7-B78/GpL16-k0 (antibody) chain 1: QVQLVQSGAEVKKPGASVTVSCKASGYTFTDYEMHWIRQPPGEGLEWIGAIDPKTGDTAYSESFQDRVTLTADKSTSTAYMELSSLTSEDTAVYYCTRFYSYTYWGQGTLVTVSSASTKGPSVFPLAPSSKSTSGGTAALGCLVKDYFPEPVTVSWNSGALTSGVHTFPAVLQSSGLYSLSSVVTVPSSSLGTQTYICNVNHKPSNTKVDKKVEPKSCDKTHTCPPCPAPEYLWGPSVFLFPPKPKDTLMISRTPEVTCVVVDVSHEDPEVKFNWYVDGVEVHNAKTKPREEQWNATYRVVSVLTVLHQDWLNGKEYKCKVSNKALPAPIEKTISKAKGQPREPQVYTLPPSRKELTKNQVSLTCLVKGFYPSDIAVEWESNGQPENNYKTTPPVLDSDGSFFLYSKLTVDKSRWQQGNVFSCSVMHEALHNRYTQKSLSLSP chain 2: QVQLVQSGAEVKKPGASVTVSCKASGYTFTDYEMHWIRQPPGEGLEWIGAIDPKTGDTAYSESFQDRVTLTADKSTSTAYMELSSLTSEDTAVYYCTRFYSYTYWGQGTLVTVSSASTKGPSVFPLAPSSKSTSGGTAALGCLVKDYFPEPVTVSWNSGALTSGVHTFPAVLQSSGLYSLSSVVTVPSSSLGTQTYICNVNHKPSNTKVDKKVEPKSCDKTHTCPPCPAPELLGGPDVFLFPPKPKDTLMISRTPEVTCVVVDVSHEDPEVKFNWYVDGVEVHNAKTKPREEQYNSTYRVVSVLTVLHQDWLNGKEYKCKVSNKALPLPEEKTISKAKGQPREPQVYTLPPSRDELTKNQVSLTCLVKGFYPSDIAVEWESNGQPENNYKTTPPVLDSDGSFFLYSKLTVDKSRWQQGNVFSCSVMHEALHNHYTQESLSLSP chain 3: DIVMTQSPLSLPVTPGEPASISCQASESLVHSNRNTYLHWYLQKPGQSPQLLIYKVSNRFSGVPDRFSGSGSGTDFTLKISRVEAEDVGVYYCSQNTHVPPTFGQGTKVEIERTVAAPSVFIFPPSDEQLKSGTASVVCLLNNFYPREAKVQWKVDNALQSGNSQESVTEQDSKDSTYSLSSTLTLSKADYEKHKVYACEVTHQGLSSPVTKSFNRGEC
